In test [1] the target is Recombinant baculovirus-expressed HIV-1 gp120 derived from the MN isolate (HIV-1 isolate MN) (UniProt P05877). The test is described as follows: competition: 125I-CD4 on immobilized gp120, 10-fold molar excess of peptide; isolate (MN or LAI) not stated.
Test [2] deals with Recombinant baculovirus-expressed HIV-1 gp120 derived from the LAV isolate (HIV-1 isolate LAV (LAI)) (UniProt P03377). The test is described as above.
The target of test [3] is CHO cell-expressed soluble recombinant CD4 (UniProt P01730). The test is described as follows: competition: 125I-CD4 on immobilized gp120 (MN and LAI), 10-fold molar excess of fusion protein.
Test [4] deals with CSVTCG peptide derived from TSP1 properdin-like Type 1 repeat. In words: solid phase binding, 125I-gp120 on immobilized peptide, saturation isotherms.

Turning to “CSVTCG peptide derived from TSP1 properdin-like Type 1 repeat”, in test [1], the % inhibition (usually the change of the read-out against control, counted positive when it falls) amounted to 53%.
On to “GRGDS peptide derived from TSP1 calcium binding Type 3 repeat”, for which the % inhibition in test [2] and in test [1] was 4% in each case.
As to “GST/CD36 fusion protein CFP67-157 (from UniProt P16671 67-157)”, the % inhibition in test [3] is 89%.
On the same count and under the same terms, under “GST/LIMPII fusion protein LFP75-155 (from UniProt Q14108 75-155)” stands 89%; under “GST/LIMPII fusion protein LFP156-243 (from UniProt Q14108 156-243)”, 32%.
Turning to “Recombinant baculovirus-expressed HIV-1 gp120 derived from the LAV isolate (from UniProt P03377 33-516)”, the Kd (in general, the concentration at which binding is half-saturated) in test [4] was found to be 300 nM.

These data come from patent US6964763.
